In experiment [1] the target is endogenous human LSR of PLC hepatoma cells (human) (UniProt Q86X29). In words: cell-based or functional assay.
The target in experiment [2] is human LSR α′ subunit expressed in CHO-K1 cells (human) (UniProt Q86X29). In words: cell-based or functional assay.
For experiment [3] the target is unchanged. The experiment can be described thus: cell-associated ^125I-leptin on CHO-K1 cells stably expressing LSR α′, 37° C., 2 h; Lineweaver-Burk transformation (FIG. 3C, inset).

endogenous human LSR of PLC hepatoma cells (human), sequence (Q86X29 whole entry): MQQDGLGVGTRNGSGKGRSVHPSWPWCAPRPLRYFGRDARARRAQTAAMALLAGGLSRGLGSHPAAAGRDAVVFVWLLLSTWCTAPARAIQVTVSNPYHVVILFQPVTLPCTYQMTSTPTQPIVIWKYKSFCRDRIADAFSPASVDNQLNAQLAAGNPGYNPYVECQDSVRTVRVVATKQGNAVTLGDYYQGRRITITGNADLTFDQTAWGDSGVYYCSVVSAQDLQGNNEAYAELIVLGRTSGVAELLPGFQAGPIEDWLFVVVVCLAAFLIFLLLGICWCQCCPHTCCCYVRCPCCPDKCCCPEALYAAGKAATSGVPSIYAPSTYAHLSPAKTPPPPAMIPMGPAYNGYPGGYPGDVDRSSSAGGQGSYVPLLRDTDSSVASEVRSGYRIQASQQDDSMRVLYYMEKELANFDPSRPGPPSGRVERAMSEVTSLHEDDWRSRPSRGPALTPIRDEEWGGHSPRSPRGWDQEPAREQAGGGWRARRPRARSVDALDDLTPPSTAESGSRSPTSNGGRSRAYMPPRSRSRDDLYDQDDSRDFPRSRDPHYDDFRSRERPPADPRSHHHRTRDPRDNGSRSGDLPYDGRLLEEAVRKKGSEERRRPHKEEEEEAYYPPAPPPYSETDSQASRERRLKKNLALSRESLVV
human LSR α′ subunit expressed in CHO-K1 cells (human), sequence (Q86X29 whole entry): as above

As for “^125I-leptin (species not stated) (ligand)”, the ^125I-leptin degradation by PLC cells (TCA-soluble chloroform-insoluble products) in experiment [1] is greater than 10 ng/mL. This substance also yielded a ^125I-leptin degraded relative to that bound and internalized in experiment [2] of 16%. For the same substance, the equilibrium dissociation constant (Kd) in experiment [3] turned out to be 1.3 nM.

As to “recombinant human leptin (from UniProt P41159 22-167) (ligand)”, in experiment [1], the acute leptin stimulation of oleate-induced ^125I-LDL binding in PLC cells preincubated 24 h with 200 ng/mL leptin: leptin concentration giving the maximal effect worked out at 100 ng/mL; the acute leptin stimulation of oleate-induced ^125I-LDL binding in PLC cells preincubated 24 h with 200 ng/mL leptin: reduction of the maximal effect was determined as 50%; the oleate-induced LSR binding uptake and degradation of ^125I-LDL in PLC cells is greater than 10 ng/mL.

The values are drawn from patent US20060030530A1.
